We go through 3 proteins from PMC3629940, “Exploring the structure and function of Thermotoga maritima CorA reveals the mechanism of gating and ion selectivity in Co^2+/Mg^2+ transport” (Biochemical Journal, 2013).

Sequences and labels used below:
B1: Thermotoga maritima CorA N288L mutant (natural protein)
chain: MEEKRLSAKKGLPPGTLVYTGKYREDFEIEVMNYSIEEFREFKTTDVESVLPFRDSSTPTWINITGIHRTDVVQRVGEFFGIHPLVLEDILNVHQRPKVEFFENYVFIVLKMFTYDKNLHELESEQVSLILTKNCVLMFQEKIGDVFDPVRERIRYNRGIIRKKRADYLLYSLIDALVDDYFVLLEKIDDEIDVLEEEVLERPEKETVQRTHQLKRNLVELRKTIWPLREVLSSLYRDVPPLIEKETVPYFRDVYDHTIQIADTVETFRDIVSGLLDVYLSSVSNKTLEVMKVLTIIATIFMPLTFIAGIYGMNFEYMPELRWKWGYPVVLAVMGVIAVIMVVYFKKKKWL
notes: CorA of Thermotoga maritima with N288L; source: E. coli, overexpressed, purified (1% DDM solubilisation, Ni-NTA, TEV cleavage, Superdex 200)
B2: Thermotoga maritima CorA T295L mutant (natural protein)
chain: MEEKRLSAKKGLPPGTLVYTGKYREDFEIEVMNYSIEEFREFKTTDVESVLPFRDSSTPTWINITGIHRTDVVQRVGEFFGIHPLVLEDILNVHQRPKVEFFENYVFIVLKMFTYDKNLHELESEQVSLILTKNCVLMFQEKIGDVFDPVRERIRYNRGIIRKKRADYLLYSLIDALVDDYFVLLEKIDDEIDVLEEEVLERPEKETVQRTHQLKRNLVELRKTIWPLREVLSSLYRDVPPLIEKETVPYFRDVYDHTIQIADTVETFRDIVSGLLDVYLSSVSNKTNEVMKVLLIIATIFMPLTFIAGIYGMNFEYMPELRWKWGYPVVLAVMGVIAVIMVVYFKKKKWL
notes: CorA of Thermotoga maritima with T295L; source: E. coli, overexpressed, purified (1% DDM solubilisation, Ni-NTA, TEV cleavage, Superdex 200)
B3: Thermotoga maritima CorA T299L mutant (natural protein)
chain: MEEKRLSAKKGLPPGTLVYTGKYREDFEIEVMNYSIEEFREFKTTDVESVLPFRDSSTPTWINITGIHRTDVVQRVGEFFGIHPLVLEDILNVHQRPKVEFFENYVFIVLKMFTYDKNLHELESEQVSLILTKNCVLMFQEKIGDVFDPVRERIRYNRGIIRKKRADYLLYSLIDALVDDYFVLLEKIDDEIDVLEEEVLERPEKETVQRTHQLKRNLVELRKTIWPLREVLSSLYRDVPPLIEKETVPYFRDVYDHTIQIADTVETFRDIVSGLLDVYLSSVSNKTNEVMKVLTIIALIFMPLTFIAGIYGMNFEYMPELRWKWGYPVVLAVMGVIAVIMVVYFKKKKWL
notes: CorA of Thermotoga maritima with T299L; source: E. coli, overexpressed, purified (1% DDM solubilisation, Ni-NTA, TEV cleavage, Superdex 200)

The data set concerns the molecule itself. The data set is described as follows: SEC; size-exclusion chromatography of the mutants to verify channel intactness (Supplementary Figure S2); conditions of this run not told.
As to B1, the binding result is given as “binds”.

With B2, the binding result is reported as “binds”.

Turning to B3, the binding result was “binds”.
